Consider two molecules from patent EP4435012A1 (Juventus Cell Therapy Ltd., dated 2024).

The assay addresses T1, BCMA on MM.1S cells (human multiple myeloma cells that endogenously express BCMA) (human, UniProt Q02223 1-184).
T1 sequence (looked up): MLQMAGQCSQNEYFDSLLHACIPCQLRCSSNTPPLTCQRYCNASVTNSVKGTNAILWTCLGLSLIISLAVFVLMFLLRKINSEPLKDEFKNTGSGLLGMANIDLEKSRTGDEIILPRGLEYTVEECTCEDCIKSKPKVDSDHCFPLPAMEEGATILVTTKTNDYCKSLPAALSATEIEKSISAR
Briefly: cell-based or functional assay.

B1: BY-04G CAR (on BCMA CAR-T cell BY-04G) (other)
chain: EIVMTQSPSTLSASVGDRVIINCQASQSVFSNNYLAWYQQKPGKAPKLLIYRASNLASGVPSRFSGSGSGAEFTLTISSLQPDDFATYYCQPTYLSGDWYVAFGQGTKLTVLGGGGSGGGGSGGGGSEVQLVESGGGLVQPGGSLRLSCTASGFSLNYYGMGWVRQAPGKGLEWIGIIAGDRDTYYATWAKGRFTISRDNSKNTVYLQMNSLRAEDTAVYFCARGSYSSTWDGAFDLWGPGTLVTVSSTTTPAPRPPTPAPTIASQPLSLRPEACRPAAGGAVHTRGLDFACDIYIWAPLAGTCGVLLLSLVITLYCKRGRKKLLYIFKQPFMRPVQTTQEEDGCSCRFPEEEEGGCELRVKFSRSADAPAYQQGQNQLYNELNLGRREEYDVLDKRRGRDPEMGGKPRRKNPQEGLYNELQKDKMAEAYSEIGMKGERRRGKGHDGLYQGLSTATKDTYDALHMQALPPR
Regarding B1, the “killing of target cell (luciferase activity in target cell, effector/target 1:4, 48 hours)” value is 100%.

B2: BY-01G CAR (on BCMA CAR-T cell BY-01G) (other)
chain: EIVMTQSPSTLSASVGDRVIITCQASENIYRNLAWYQQKPGKAPKLLIYAASLLASGVPSRFSGSGSGAEFTLTISSLQPDDFATYYCQNAFYSSSADNPFGQGTKLTVLGGGGSGGGGSGGGGSEVQLVESGGGLVQPGGSLRLSCTASGFSLSSYAMSWVRQAPGKGLEWIGMISSSGSTHYASWAKGRFTISRDTSKNTVYLQMNSLRAEDTAVYYCARDFYVYSSGTYLEYGMDLWGQGTLVTVSSTTTPAPRPPTPAPTIASQPLSLRPEACRPAAGGAVHTRGLDFACDIYIWAPLAGTCGVLLLSLVITLYCKRGRKKLLYIFKQPFMRPVQTTQEEDGCSCRFPEEEEGGCELRVKFSRSADAPAYQQGQNQLYNELNLGRREEYDVLDKRRGRDPEMGGKPRRKNPQEGLYNELQKDKMAEAYSEIGMKGERRRGKGHDGLYQGLSTATKDTYDALHMQALPPR
On to B2, for which the “killing of target cell (luciferase activity in target cell, effector/target 1:4, 48 hours)” value is 100%.
